Assay results from article PMC4046112, “eIF2B is a decameric guanine nucleotide exchange factor with a γ2ε2 tetrameric core” (Nature Communications, 2014).

T1: eIF2Bγ, FLAG-tagged (γ-subunit of yeast eIF2B) (S. cerevisiae, UniProt P09032 1-578)
T1 construct: eIF2B gamma subunit (GCD1), S. cerevisiae; Bait of all eIF2B complex purifications; also called GCD1-FLAG2-His6; source: S. cerevisiae strains overexpressing eIF2B subunits, purified (anti-FLAG resin, FLAG peptide elution); not shown: FLAG2, C-terminal, kept
T1 sequence (looked up): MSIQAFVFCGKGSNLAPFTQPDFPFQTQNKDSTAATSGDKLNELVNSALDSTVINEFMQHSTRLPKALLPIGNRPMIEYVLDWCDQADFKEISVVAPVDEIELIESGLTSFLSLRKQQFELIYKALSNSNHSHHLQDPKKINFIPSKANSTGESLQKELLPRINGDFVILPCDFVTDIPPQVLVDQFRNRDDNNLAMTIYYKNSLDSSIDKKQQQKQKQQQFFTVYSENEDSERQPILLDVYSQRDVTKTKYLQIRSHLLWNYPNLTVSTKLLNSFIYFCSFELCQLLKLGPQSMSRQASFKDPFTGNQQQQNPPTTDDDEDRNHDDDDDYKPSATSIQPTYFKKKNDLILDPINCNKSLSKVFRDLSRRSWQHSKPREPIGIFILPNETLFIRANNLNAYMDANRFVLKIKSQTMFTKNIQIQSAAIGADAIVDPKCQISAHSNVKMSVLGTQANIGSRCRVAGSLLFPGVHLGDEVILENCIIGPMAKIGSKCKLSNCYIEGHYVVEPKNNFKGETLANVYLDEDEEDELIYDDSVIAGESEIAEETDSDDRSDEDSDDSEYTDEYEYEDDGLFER

B1: eIF2γ, His-tagged (γ-subunit of yeast eIF2) (natural protein, S. cerevisiae, UniProt P32481 1-527, looked up)
chain: MSDLQDQEPSIIINGNLEPVGEPDIVEETEVVAQETQETQDADKPKKKVAFTGLEEDGETEEEKRKREFEEGGGLPEQPLNPDFSKLNPLSAEIINRQATINIGTIGHVAHGKSTVVRAISGVQTVRFKDELERNITIKLGYANAKIYKCQEPTCPEPDCYRSFKSDKEISPKCQRPGCPGRYKLVRHVSFVDCPGHDILMSTMLSGAAVMDAALLLIAGNESCPQPQTSEHLAAIEIMKLKHVIILQNKVDLMREESALEHQKSILKFIRGTIADGAPIVPISAQLKYNIDAVNEFIVKTIPVPPRDFMISPRLIVIRSFDVNKPGAEIEDLKGGVAGGSILNGVFKLGDEIEIRPGIVTKDDKGKIQCKPIFSNIVSLFAEQNDLKFAVPGGLIGVGTKVDPTLCRADRLVGQVVGAKGHLPNIYTDIEINYFLLRRLLGVKTDGQKQAKVRKLEPNEVLMVNIGSTATGARVVAVKADMARLQLTSPACTEINEKIALSRRIEKHWRLIGWATIKKGTTLEPIA
notes: eIF2 gamma subunit (GCD11), S. cerevisiae; also called GCD11-His6; source: S. cerevisiae strain GP3511 co-overexpressing all three eIF2 subunits, purified (Ni-chelate, heparin-Sepharose); not shown: His6, C-terminal, kept
B2: eIF2Bα (α-subunit of yeast eIF2B) (natural protein, S. cerevisiae, UniProt P14741 1-305, looked up)
chain: MSEFNITETYLRFLEEDTEMTMPIAAIEALVTLLRIKTPETAAEMINTIKSSTEELIKSIPNSVSLRAGCDIFMRFVLRNLHLYGDWENCKQHLIENGQLFVSRAKKSRNKIAEIGVDFIADDDIILVHGYSRAVFSLLNHAANKFIRFRCVVTESRPSKQGNQLYTLLEQKGIPVTLIVDSAVGAVIDKVDKVFVGAEGVAESGGIINLVGTYSVGVLAHNARKPFYVVTESHKFVRMFPLSSDDLPMAGPPLDFTRRTDDLEDALRGPTIDYTAQEYITALITDLGVLTPSAVSEELIKMWYD
notes: eIF2B alpha subunit (GCN3), S. cerevisiae; Subunit of the purified eIF2B complex, written alone for the subunit pairs; also called eIF2B α-subunit; GCN3
B3: eIF2Bε (ε-subunit of yeast eIF2B, untagged) (natural protein, S. cerevisiae, UniProt P32501 1-712, looked up)
chain: MAGKKGQKKSGLGNHGKNSDMDVEDRLQAVVLTDSYETRFMPLTAVKPRCLLPLANVPLIEYTLEFLAKAGVHEVFLICSSHANQINDYIENSKWNLPWSPFKITTIMSPEARCTGDVMRDLDNRGIITGDFILVSGDVLTNIDFSKMLEFHKKMHLQDKDHISTMCLSKASTYPKTRTIEPAAFVLDKSTSRCIYYQDLPLPSSREKTSIQIDPELLDNVDEFVIRNDLIDCRIDICTSHVPLIFQENFDYQSLRTDFVKGVISSDILGKHIYAYLTDEYAVRVESWQTYDTISQDFLGRWCYPLVLDSNIQDDQTYSYESRHIYKEKDVVLAQSCKIGKCTAIGSGTKIGEGTKIENSVIGRNCQIGENIRIKNSFIWDDCIIGNNSIIDHSLIASNATLGSNVRLNDGCIIGFNVKIDDNMDLDRNTKISASPLKNAGSRMYDNESNEQFDQDLDDQTLAVSIVGDKGVGYIYESEVSDDEDSSTEACKEINTLSNQLDELYLSDDSISSATKKTKKRRTMSVNSIYTDREEIDSEFEDEDFEKEGIATVERAMENNHDLDTALLELNTLRMSMNVTYHEVRIATITALLRRVYHFIATQTLGPKDAVVKVFNQWGLLFKRQAFDEEEYIDLMNIIMEKIVEQSFDKPDLILFSALVSLYDNDIIEEDVIYKWWDNVSTDPRYDEVKKLTVKWVEWLQNADEESSSEEE
notes: eIF2B epsilon subunit (GCD6), S. cerevisiae; Subunit of the purified eIF2B complexes, written alone for the subunit pairs; also called eIF2B ε-subunit; ε/GCD6
B4: eIF2Bδ (δ-subunit of yeast eIF2B) (natural protein, S. cerevisiae, UniProt P12754 1-651, looked up)
chain: MSESEAKSRSATPPSKAKQATPTTTAAANGEKKLTNKELKELKKQEKAAKRAAMKQANGISIEQQQQQAQMKKEKKQLQREQQQKREQKQKNANKKKQNERNVKKSTLFGHLETTEERRATILALTSAVSSPKTSRITAAGLMVPVVASALSGSNVLTASSLMPVGPNASSTVSASAPASTTTTLPASSAALSAGTSSASTNTPTAIQQEIASSNASDVAKTLASISLEAGEFNVIPGISSVIPTVLEQSFDNSSLISSVKELLLNKDLIHPSILLLTSHLAHYKIVGSIPRCIAMLEVFQIVIKDYQTPKGTTLSRNLTSYLSHQIDLLKKARPLSVTMGNAIRWLKQEISLIDPSTPDKAAKKDLCEKIGQFAKEKIELADQLIIDNASTQIEESTTIVTYGSSKVLTELLLHNAISLKKNIKVIVVDSRPLFEGRKMAETLRNAGVNVMYALITSLDTIFNMDVDYVFLGAHSILSNGFLYSRAGTAMLAMSAKRRNIPVLVCCESLKFSQRVQLDSVTFNELADPNDLVNIDYENPVERRGNKGALLNQFIKERKFEKKKLAMENKPKGNKIGGKKGSEGESKDASNEEDSNSKNILDGWQELPSLNIVNILYDLTPPEYIKKVITEFGALPPSSVPVILREYKGSA
notes: eIF2B delta subunit (GCD2), S. cerevisiae; Subunit of the purified eIF2B complexes, written alone for the subunit pairs; also called eIF2B δ-subunit; δ/Gcd2
B5: eIF2Bβ (β-subunit of yeast eIF2B) (natural protein, S. cerevisiae, UniProt P32502 1-381, looked up)
chain: MSSQAFTSVHPNAATSDVNVTIDTFVAKLKRRQVQGSYAIALETLQLLMRFISAARWNHVNDLIEQIRDLGNSLEKAHPTAFSCGNVIRRILAVLRDEVEEDTMSTTVTSTSVAEPLISSMFNLLQKPEQPHQNRKNSSGSSSMKTKTDYRQVAIQGIKDLIDEIKNIDEGIQQIAIDLIHDHEILLTPTPDSKTVLKFLITARERSNRTFTVLVTEGFPNNTKNAHEFAKKLAQHNIETLVVPDSAVFALMSRVGKVIIGTKAVFVNGGTISSNSGVSSVCECAREFRTPVFAVAGLYKLSPLYPFDVEKFVEFGGSQRILPRMDPRKRLDTVNQITDYVPPENIDIYITNVGGFNPSFIYRIAWDNYKQIDVHLDKNKA
notes: eIF2B beta subunit (GCD7), S. cerevisiae; Subunit of the purified eIF2B complexes, written alone for the subunit pairs; also called eIF2B β-subunit; β/Gcd7

Legend:
[1] = biological target: yeast FLAG-tagged eIF2B complex (five subunits α–ε; decamer) (S. cerevisiae) (UniProt P14741); test: native MS; FLAG-purified five-subunit eIF2B in 500 mM ammonium acetate; high collision energy for dissociation; decamer = two copies of each of five subunits
[2] = biological target: yeast FLAG-tagged eIF2B complex (five subunits α–ε; decamer) (S. cerevisiae) (UniProt P14741); test: native MS; eIF2-eIF2B preparations (purified at low ionic strength, or formed with phosphorylated eIF2 on anti-FLAG resin) exchanged into 500 mM ammonium acetate
[3] = biological target: T1, eIF2Bγ, FLAG-tagged (γ-subunit of yeast …); test: cross-linking; BS3-d0/d4 (1:1) added to purified complexes (eIF2:eIF2B, four-subunit eIF2B, eIF2Bγε core), 30 min at 26 °C, trypsin digest, nanoLC-MS/MS, MassMatrix search; the text does not tell which cross-link came from which complex; settings: both partners purified
[4] = biological target: B4; test: as above; settings: both partners purified
[5] = biological target: eIF2α phosphorylated at Ser51 (subunit of phosphorylated eIF2) (S. cerevisiae) (UniProt P20459); test: label-free quantitative proteomics (iBAQ) of the purified complex; eIF2-eIF2B complex purified after phosphorylation of eIF2, trypsin digest, nanoLC-MS/MS, iBAQ intensities compared; eIF2B subunits relative to FLAG-tagged γ (set to 1), eIF2 subunits relative to α
[6] = biological target: T1, eIF2Bγ, FLAG-tagged (γ-subunit of yeast …); test: as above; settings: both partners purified
[7] = biological target: B3; test: cross-linking; BS3-d0/d4 (1:1) added to purified complexes (eIF2:eIF2B, four-subunit eIF2B, eIF2Bγε core), 30 min at 26 °C, trypsin digest, nanoLC-MS/MS, MassMatrix search; the text does not tell which cross-link came from which complex; settings: both partners purified

| Molecule | binding result [4] | stoichiometry N [6] | binding result [7] | also measured |
| --- | --- | --- | --- | --- |
| yeast FLAG-tagged eIF2B complex (five subunits α–ε; decamer), P14741 1-305; P32502 1-381; P09032 1-578; P12754 1-651; P32501 1-712 | – | – | – | stoichiometry N [1]: 10; stoichiometry N [2]: 10 |
| B1 | binds | – | – | binding result [3]: binds; stoichiometry N [5]: 1.67 |
| B2 | – | 1.12 | – | – |
| B3 | – | 0.76 | – | – |
| B4 | – | 0.95 | binds | – |
| B5 | binds | 1.4 | binds | – |
